{"source": "patent US20090053227A1", "molecular_target": "Kv3.2a (potassium channel Kv3.2a, KCNC2 transcript variant 1) (human) (UniProt Q96PR1)", "sequence (Q96PR1 other isoform, or with tags, fused parts or gaps mutant)": "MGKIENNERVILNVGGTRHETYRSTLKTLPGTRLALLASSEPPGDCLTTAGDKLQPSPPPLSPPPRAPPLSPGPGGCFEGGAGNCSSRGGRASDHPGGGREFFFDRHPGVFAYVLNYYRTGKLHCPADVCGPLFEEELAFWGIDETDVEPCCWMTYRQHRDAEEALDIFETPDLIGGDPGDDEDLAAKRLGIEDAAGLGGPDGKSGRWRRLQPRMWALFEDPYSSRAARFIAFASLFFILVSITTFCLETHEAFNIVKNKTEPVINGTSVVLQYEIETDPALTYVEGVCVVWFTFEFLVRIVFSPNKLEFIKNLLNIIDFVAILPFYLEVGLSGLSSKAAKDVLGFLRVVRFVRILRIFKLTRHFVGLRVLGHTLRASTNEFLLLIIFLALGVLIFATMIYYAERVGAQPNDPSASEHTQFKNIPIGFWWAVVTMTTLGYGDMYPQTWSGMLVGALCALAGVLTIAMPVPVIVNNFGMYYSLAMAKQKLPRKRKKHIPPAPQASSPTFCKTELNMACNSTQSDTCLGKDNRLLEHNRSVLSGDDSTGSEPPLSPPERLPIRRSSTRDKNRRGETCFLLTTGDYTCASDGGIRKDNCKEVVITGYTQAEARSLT", "test": "flow cytometry on unpermeabilized Kv3.2a-CHO 1A5 cells", "data": [{"substance": "Neg control", "values": [{"measurement": "percentage shift into gate", "value": 0.01, "unit": "%"}]}]}
